The text below walks through data of article PMC5605233, “Crystal structure of the N-terminal domain of human Timeless and its interaction with Tipin” (Nucleic Acids Research, 2017).

In data set [1] the target is human Tipin, N-terminal 10xHis tag, co-expressed with Timeless (human) (UniProt Q9BVW5). Put plainly: native MS + SEC-MALS; purified Timeless-Tipin complex; nanoESI-MS in 0.20 M ammonium acetate pH 7.0, 5-10 μM; SEC-MALLS.
Data set [2] concerns the molecule itself. Put plainly: SEC-MALS; Superdex 200 Increase 10/300, 25°C, 1-2 mg/ml (100 μl injection), 25 mM Hepes 7.2, 150 mM KCl, 50 mM Arginine, 50 mM Glutamate.

human Tipin, N-terminal 10xHis tag, co-expressed with Timeless (human), sequence (Q9BVW5 whole entry): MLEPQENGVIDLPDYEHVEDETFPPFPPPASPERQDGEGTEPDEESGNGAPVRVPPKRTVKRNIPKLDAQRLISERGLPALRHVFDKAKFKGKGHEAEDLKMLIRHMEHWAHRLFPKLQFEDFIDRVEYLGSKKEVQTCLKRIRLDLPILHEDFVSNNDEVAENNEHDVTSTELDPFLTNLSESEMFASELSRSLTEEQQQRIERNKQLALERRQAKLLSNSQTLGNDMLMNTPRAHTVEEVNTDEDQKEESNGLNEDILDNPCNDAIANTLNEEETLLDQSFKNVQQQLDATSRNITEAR

As for “human Timeless, full-length, N-terminal twin-strep tag, co-expressed with Tipin (from UniProt Q9UNS1 1-1208) (natural protein)”, in data set [1], the stoichiometry N (Timeless:Tipin) was 1.

B1: TimN(Δ239-330): Timeless 1-463 with residues 239-330 replaced by the linker GSTGST (domain or fragment, human)
chain: MDLHMMNCELLATCSALGYLEGDTYHKEPDCLESVKDLIRYLRHEDETRDVRQQLGAAQILQSDLLPILTQHHQDKPLFDAVIRLMVNLTQPALLCFGNLPKEPSFRHHFLQVLTYLQAYKEAFASEKAFGVLSETLYELLQLGWEERQEEDNLLIERILLLVRNILHVPADLDQEKKIDDDASAHDQLLWAIHLSGLDDLLLFLASSSAEEQWSLHVLEIVSLMFRDQNPEQLAGVGGSTGSTQRRSALNVRLFLRDFCSEFLENCYNRLMGSVKDHLLREKAQQHDETYYMWALAFFMAFNRAASFRPGLVSETLSVRTFHFIEQNLTNYYEMMLTDRKEAASWARRMHLALKAYQELLATVNEMDISPDEAVRE
notes: human Timeless, residues 1-238; 6-residue linker in place of residues 239-330; human Timeless, residues 331-463; Dimer in solution and in the crystal; the authors think the dimer is likely an artifact of construct design; also called Timeless(1-463_(Δ239-330)); source: E. coli Rosetta2(DE3), purified (Ni-NTA, HiTrap Q, SEC)
B1: the “stoichiometry N” value in data set [2] came out at 2.
